These results are taken from patent publication US20240424127A1 (BRIGHT PEAK THERAPEUTICS, published 2024).

Numbering of substitutions follows the chain as printed. Names and notes keep the numbering of the source. Read-outs that look alike come from different tables or passages of the source. Bridges are numbered along the chain shown (N, C = ends). [ ]: non-standard residue; d: D form. glutaryl‑PEG9‑azide = glutaryl-PEG9-azide group on the N-terminal amine; L6P = lysine side chain carrying PEG6-NH2 (diglycolyl-PEG-amine); hSer = N[C@@H](CCO)C(=O)O; Nle = CCCC[C@H](N)C(=O)O

One may read the EC50 as the concentration that produces a half-maximal response. Broadly, the koff is the rate constant with which the complex falls apart. The kon is the rate constant with which the complex forms. As a reminder, the Kd is the constant that tells how readily two partners part at equilibrium.

In assay [1] the target is T1, Biotinylated Recombinant Human PD-1 (CD279)-Fc Chimera (carrier-free), Biolegend #789406 (human, UniProt Q15116 25-167, biotinylated).
T1 construct: Bought PD-1-Fc; also called h-PD1 Fc; not shown: Fc part of a bought chimera
Put plainly: Direct huPD1 ELISA: antibody coated on the plate, serial dilution of biotinylated human PD-1-Fc (x axis 'Biotin PD1 (nM)'), signal at 450 nm. (In general: An ELISA detects its analyte on a solid surface through an enzyme-linked reagent.)

The target of assay [2] is T1, Biotinylated Recombinant Human PD-1 …. Put plainly: ELISA: antibody coated on the plate, serial dilution of biotinylated human PD-1-Fc, streptavidin-HRP, OD 450 nm (x axis printed as 'Molecule (nM)').
Description: (§1) Each of these variant conjugates and unmodified antibodies are assayed by ELISA for their ability to bind to human PD-1 according to the following protocol.
(§2) Streptavidin-HRP is Sigma #RABHRP3. TMB solution is 3,3′,5,5′-Tetramethylbenzidine (Sigma T0440). Stop solution is Sigma #CL07STOP solution (0.5M H₂SO₄). Buffers are: Coating buffer is PBS. Wash buffer is PBS-0.02% Tween20. Blocking buffer is PBS-0.02% Tween20 1% BSA. Protein diluent is PBS-0.02% Tween20 0.1% BSA. STOP solution is 0.5M H₂SO₄. Procedure: Immunocytokines and parental antibody are coated overnight at 4° C. The ELISA plates are washed 4 times with 100 μl PBS-0.02% Tween20. and blocked with PBS-1% BSA. A serial dilution of h-PD1 Fc is prepared and plates are incubated for two hours at 37° C., with shaking (600 rpm). ELISA plates are washed and incubated with Streptavidin-HRP 30 min at RT, with shaking (600 rpm). ELISA plates are washed and incubated with ready-to-use TMB solution. Reaction is stopped and plates are read by OD450 on an Enspire plate reader.
Assay [3] addresses T2, Recombinant Human IL-7R alpha/CD127 Fc Avi-tag Protein, CF (R&D Systems #AVI10317-050) (human, UniProt P16871 21-239).
T2 construct: Bought construct; It was loaded on streptavidin (SAX/SAX2) biosensors; not shown: Fc and Avi-tag of a bought protein
T2 sequence (looked up): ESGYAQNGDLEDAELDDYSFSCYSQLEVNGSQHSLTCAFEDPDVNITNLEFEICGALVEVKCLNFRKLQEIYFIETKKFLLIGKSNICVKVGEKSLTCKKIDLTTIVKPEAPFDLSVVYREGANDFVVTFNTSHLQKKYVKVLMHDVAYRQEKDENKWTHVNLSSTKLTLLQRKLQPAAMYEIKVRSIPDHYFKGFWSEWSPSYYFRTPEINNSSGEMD
In words: BLI (Octet R8); CD127-Fc-Avi loaded on SAX2 sensor, immunocytokine as analyte.

Assay [4] deals with T1, Biotinylated Recombinant Human PD-1 …. Put plainly: Direct huPD1 ELISA: immunocytokine coated on the plate, serial dilution of biotinylated human PD-1-Fc (x axis 'Biotin PD1 (nM)'), signal at 450 nm.
Description: as §1, §2
For assay [5] the target is unchanged. Put plainly: ELISA: immunocytokine coated on the plate, serial dilution of biotinylated human PD-1-Fc, streptavidin-HRP, OD 450 nm (x axis printed as 'Molecule (nM)').
Description: as §1, §2
Assay [6] concerns the target T2, Recombinant Human IL-7R alpha/CD127 Fc …. Put plainly: BLI (Octet R8); CD127-Fc-Avi loaded on SAX2 sensor, immunocytokine as analyte. This is another data set of the same source.
Assay [7] concerns the target T3, IL-7 receptor (IL-7Rα/γc heterodimer) on primary human T cells (human, UniProt P16871 21-459; P31785 23-369).
T3 sequence (looked up) 1: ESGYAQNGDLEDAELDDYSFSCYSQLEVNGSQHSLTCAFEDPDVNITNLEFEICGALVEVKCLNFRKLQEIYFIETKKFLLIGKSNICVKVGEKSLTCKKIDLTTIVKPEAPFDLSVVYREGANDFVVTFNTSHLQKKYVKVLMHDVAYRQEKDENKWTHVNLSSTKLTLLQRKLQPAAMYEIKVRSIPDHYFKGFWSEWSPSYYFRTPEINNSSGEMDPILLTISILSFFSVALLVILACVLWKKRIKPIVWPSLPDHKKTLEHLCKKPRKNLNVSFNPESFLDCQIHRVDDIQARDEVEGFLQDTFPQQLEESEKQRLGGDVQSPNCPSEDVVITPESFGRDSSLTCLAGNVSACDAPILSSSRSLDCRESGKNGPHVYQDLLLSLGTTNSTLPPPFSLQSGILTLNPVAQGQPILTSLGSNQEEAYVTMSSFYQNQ
T3 sequence (looked up) 2: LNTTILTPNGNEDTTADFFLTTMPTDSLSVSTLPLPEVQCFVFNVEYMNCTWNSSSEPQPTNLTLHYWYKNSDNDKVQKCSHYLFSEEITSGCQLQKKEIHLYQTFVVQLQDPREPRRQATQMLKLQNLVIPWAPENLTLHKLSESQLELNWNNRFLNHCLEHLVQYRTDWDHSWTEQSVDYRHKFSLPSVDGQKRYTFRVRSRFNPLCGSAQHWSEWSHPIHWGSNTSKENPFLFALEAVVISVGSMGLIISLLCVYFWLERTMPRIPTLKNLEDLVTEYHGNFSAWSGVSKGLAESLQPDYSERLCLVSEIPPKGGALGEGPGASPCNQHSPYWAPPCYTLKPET
In words: cell-based or functional assay.

The target in assay [8] is T2, Recombinant Human IL-7R alpha/CD127 Fc …. Put plainly: BLI (Octet R8); CD127-Fc-Avi loaded on SAX2 sensor, IL-7 polypeptide as analyte. Background: In BLI a coated tip is dipped into the sample, and binding shifts an interference pattern.
Assay [9] shares this target. The description is as above. The source holds these as a separate data set.
Assay [10] shares this target. Described as above. The source holds these as a separate data set.
Assay [11] has the same target. Described as above. The source holds these as a separate data set.
The target is the same in assay [12]. The description is as above. This is another data set of the same source.
Assay [13] has the same target. The assay is described as above. This is another data set of the same source.

T1 sequence (Q15116 25-167, change not shown): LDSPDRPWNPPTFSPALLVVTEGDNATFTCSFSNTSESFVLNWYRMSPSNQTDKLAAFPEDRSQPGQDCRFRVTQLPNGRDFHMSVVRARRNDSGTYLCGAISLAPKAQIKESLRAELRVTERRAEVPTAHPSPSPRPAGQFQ

B1: LZM-009 (antibody, V domains shown)
VH: QVQLVQSGAEVKKPGASVKVSCKASGYTFTSYYMYWVRQAPGQGLEWMGGVNPSNGGTNFNEKFKSRVTITADKSTSTAYMELSSLRSEDTAVYYCARRDYRYDMGFDYWGQGTTVTVSS
VL: EIVLTQSPATLSLSPGERATISCRASKGVSTSGYSYLHWYQQKPGQAPRLLIYLASYLESGVPARFSGSGSGTDFTLTISSLEPEDFATYYCQHSRELPLTFGTGTKVEIK
notes: It is a whole antibody with an Fc region (conjugated at K248)
On to B1, for which the EC50 in assay [1] and in [2] was 0.035 nM throughout.

B2: CMP-041, LZM-009 conjugated to synthetic IL-7 (WT) CMP-108, DAR 1, at K248 (other)
VH: B1 VH
VL: B1 VL
chain: DCDIEGKDGKQYESVLXVSIDQLLDSXKEIGSNCLXNEFNFFKRHICDANKEGXFLFRAARKLRQFLKXNSTGDFXLHLLKVSEGTTILLNCTGQVKGRKPAALGEAQPTKSLXENKSLKEQKKLNDLCFLKRLLQEIKTCWNKILXGTKEH
modifications: not fully specified; norleucine (Nle) at 17, 27, 54, 69, 147; homoserine (Hse) at 36, 76, 114; N-terminal glutaryl-PEG9-azide reacted with the DBCO linker on the antibody; K248 (EU numbering) of the Fc region carries the linker to IL-7 (DAR 1)
notes: Immunocytokine (chemical conjugate, not a fusion)
Turning to B2, the koff in assay [3] turned out to be 0.00979 s⁻¹. Further, in assay [3], the kon is 2.95e+06 M⁻¹ s⁻¹. For the same molecule, the EC50 in [4] and in [5] was 0.0348 nM throughout.

B3: CMP-116, LZM-009 conjugated to synthetic IL-7 (V15W) CMP-107, DAR 1, at K248 (other)
VH: B1 VH
VL: B1 VL
chain: B2 chain with V15W
modifications: not fully specified; norleucine (Nle) at 17, 27, 54, 69, 147; homoserine (Hse) at 36, 76, 114; N-terminal glutaryl-PEG9-azide reacted with the DBCO linker on the antibody; K248 (EU numbering) of the Fc region carries the linker to IL-7 (DAR 1)
notes: Immunocytokine (chemical conjugate)
Take B3: in assay [6], the koff came to 0.0473 s⁻¹ and the kon was 2.9e+06 M⁻¹ s⁻¹. Further, the EC50 in assay [4] turned out to be 0.0341 nM.

B4: CMP-108, synthetic IL-7 of SEQ ID NO: 3 with glutaryl-PEG9-azide at the N-terminus (ligand)
chain: {glutaryl‑PEG9‑azide}-DCDIEGKDGKQYESVL[Nle]VSIDQLLDS[Nle]KEIGSNCL[hSer]NEFNFFKRHICDANKEG[Nle]FLFRAARKLRQFLK[Nle]NSTGDF[hSer]LHLLKVSEGTTILLNCTGQVKGRKPAALGEAQPTKSL[hSer]ENKSLKEQKKLNDLCFLKRLLQEIKTCWNKIL[Nle]GTKEH-NH2
modifications: disulfide 34-129, 47-141, 2-92
notes: The suffix is not explained; also called synthetic IL-7, WT with an N-terminal conjugation handle
On to B4, for which, in assay [7], the “EC50 pSTAT5, CD4 Memory” value came out at 6 pM; the “EC50 pSTAT5, CD4 Naive” value was found to be 6 pM; the “EC50 pSTAT5, CD4 Treg” value was 20 pM; the “EC50 pSTAT5, CD8 Memory” value is 8 pM. The “EC50 pSTAT5, CD8 Naive” value in assay [7] turned out to be 8 pM. For the same molecule, in assay [8], the Kd worked out at 0.254 nM, the koff was 0.00167 s⁻¹ and the kon stood at 6.59e+06 M⁻¹ s⁻¹. Moreover, in assay [9], the dissociation constant (Kd) was 2.75 nM, the koff is 0.00901 s⁻¹ and the kon worked out at 3.28e+06 M⁻¹ s⁻¹.

B5: CMP-110, synthetic IL-7 G85N of SEQ ID NO: 7 with glutaryl-PEG9-azide at the N-terminus (ligand)
chain: {glutaryl‑PEG9‑azide}-DCDIEGKDGKQYESVL[Nle]VSIDQLLDS[Nle]KEIGSNCL[hSer]NEFNFFKRHICDANKEG[Nle]FLFRAARKLRQFLK[Nle]NSTGDF[hSer]LHLLKVSENTTILLNCTGQVKGRKPAALGEAQPTKSL[hSer]ENKSLKEQKKLNDLCFLKRLLQEIKTCWNKIL[Nle]GTKEH-NH2
modifications: disulfide 34-129, 47-141, 2-92
notes: The suffix is not explained; also called CMP-110-001
For the molecule B5, in assay [7], the “EC50 pSTAT5, CD4 Memory” value is 30 pM; the “EC50 pSTAT5, CD4 Naive” value is 30 pM; the “EC50 pSTAT5, CD4 Treg” value was determined as 67 nM; the “EC50 pSTAT5, CD8 Memory” value was 80 pM. In addition, in assay [7], the “EC50 pSTAT5, CD8 Naive” value turned out to be 50 pM. Besides, in assay [10], the koff came to 0.0225 s⁻¹ and the kon turned out to be 2.51e+06 M⁻¹ s⁻¹. In assay [11], the Kd worked out at 9.47 nM, the koff amounted to 0.0269 s⁻¹ and the kon amounted to 2.84e+06 M⁻¹ s⁻¹.

B6: CMP-106, recombinant IL-7 V15W with His-tag (ligand)
chain: DCDIEGKDGKQYESWLMVSIDQLLDSMKEIGSNCLNNEFNFFKRHICDANKEGMFLFRAARKLRQFLKMNSTGDFDLHLLKVSEGTTILLNCTGQVKGRKPAALGEAQPTKSLEENKSLKEQKKLNDLCFLKRLLQEIKTCWNKILMGTKEHVDHHHHHH
notes: V15W is already in the entry, which also includes the C-terminal His-tag; also called IL-7 V15W (Recomb-HIS6)
With B6, in assay [7], the “EC50 pSTAT5, CD4 Memory” value came out at 0.93 nM; the “EC50 pSTAT5, CD4 Naive” value was found to be 0.814 nM; the “EC50 pSTAT5, CD4 Treg” value came to 27.7 nM; the “EC50 pSTAT5, CD8 Memory” value is 3.22 nM. Further, in [7], the “EC50 pSTAT5, CD8 Naive” value amounted to 1.28 nM. Also, in [12], the Kd stood at 66.3 nM, the koff was determined as 0.0321 s⁻¹ and the kon was determined as 485000 M⁻¹ s⁻¹.

B7: CMP-202, synthetic IL-7 variant of Example 2W (ligand)
chain: {glutaryl‑PEG9‑azide}-DSDIEGKDGKQYESVL[Nle]VSIDQLLDS[Nle]KEIGSNCL[hSer]NEFNFFKRHICDANKEG[Nle]FLFRAARKLRQFLK[Nle]NSTGDF[hSer]LHLLK(L6P)VSENTTILLNSTGQVKGRKPAALGEAQPTKSL[hSer]ENKSLKEQKKLNDLCFLKRLLQEIKTCWNKIL[Nle]GTKEH-NH2
modifications: disulfide 34-129, 47-141
Take B7: in assay [7], the “EC50 pSTAT5, CD4 Memory” value was 38.1 nM; the “EC50 pSTAT5, CD4 Naive” value was determined as 18.9 nM; the “EC50 pSTAT5, CD4 Treg” value was 32.7 nM; the “EC50 pSTAT5, CD8 Memory” value is 37.4 nM. In addition, the “EC50 pSTAT5, CD8 Naive” value in assay [7] worked out at 20.4 nM. Besides, in [13], the Kd came to 25.4 nM, the koff came to 0.00997 s⁻¹ and the kon stood at 393000 M⁻¹ s⁻¹.
